# Results as given in PMC12337289, “Cryo-EM structure and polar assembly of the PS2 S-layer of Corynebacterium glutamicum” (Proceedings of the National Academy of Sciences of the …, 2025).
# Key:
# [1] = target: PS2 S-layer protein, ex vivo S-layer fragments from C. glutamicum ATCC13032 icd::cspB (C. glutamicum); assay: cryo-EM structure; ex vivo PS2 S-layer fragments, 0.02% DDM added before plunging, tilted images at 15° and 30°, single-particle reconstruction with C6 symmetry; lattice of hexamers (C6) joined by trimeric (C3) contacts
# [2] = target: the molecule itself; assay: negative-stain electron microscopy of isolated S-layer sheets; isolated S-layer sheets (cleared SDS extractions of C. glutamicum; washed recombinant sheets from E. coli); lattice seen in the power spectrum; sheets also kept after incubation with 10 mM EDTA
stoichiometry N [1],Molecule,binding result [2]
6,"PS2 S-layer protein, ex vivo S-layer fragments from C. glutamicum ATCC13032 icd::cspB (natural protein)",–
–,"PS2 assembly domain (PS2^AD; residues 30 to 483), recombinant (domain or fragment, C. glutamicum, UniProt Q04985 30-483, looked up, PS2 (cspB) of C. glutamicum, residues 30 to 483; the membrane anchoring domain is replaced by a hexahistidine tag; Vector pASK-IBA3plus; also called recombinant soluble PS2^AD; plasmid A231; source: E. coli BL21 (DE3) cytoplasm, gel-like pelleted fraction, washed with 1% DDM and SEC buffer; not shown: hexahistidine, C-terminal, kept) AQETNPTFNITNGFNDADGSTIQPVGPVNHTEETLRDLTDSTGAYLEEFQNGTVEEIVEAYLQVQASADGFDPSEQAAYEAFEAARVRASQELAASAETITKTRESVAYALKVDQEATAAFEAYRNALRDAAISINPDGSINPDTSINLLIDAANAANRTDRAEIEDYAHLYTQTDIALETPQLAYAFQDLKALQAEVDADFEWLGEFGIDQEDGNYVQRYHLPAVEALKAEVDARVAAIEPLRADSIAKNLEAQKSDVLVRQLFLERATAQRDTLRVVEAIFSTSARYVELYENVENVNVENKTLRQHYSALIPNLFIAAVANISELNAADAEAAAYYLHWDTDLATNDEDEAYYKAKLDFAIETYAKILFNGEVWQEPLAYVQNLDAGARQEAADREAARAADEAYRAEQLRIAQEAADAQKAIAEALAKEAEGNNDNSSDNTETGSSDIGS",binds
